Data published in the nanobody polyreactivity screen of Harvey et al. (2022).

Test: yeast display, Sf9 membrane polyspecificity reagent, FACS + sequencing; frameworks hold sequencing errors
In short: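 A synthetic nanobody library was expressed on Saccharomyces cerevisiae BJ5465 by galactose induction for 36–48 hours. The library was stained for 1 hour at 4 °C with 10% biotinylated, detergent-solubilized Sf9 membrane reagent and enriched with streptavidin microbeads before FACS. Low and high (top ~1%) gates were set on anti-HA fluorescence for expression and streptavidin fluorescence for reagent binding, and each polyreactivity label reflects the gate of origin.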

Row | Sequence | polyreactivity (PSR sort gate)
1 | QVQLVESGGGLVQAGGSLRLSCAASGLTFAWYTMGWYRQAPGKERELVADIDQSGSTYYADSVKGRFTISRDNAKNTVYLQMNSLKPEDTAVYYCNAYWSNFLYPFDYWGQGTQVTVSS | high polyreactivity
2 | QVQLVESGGGLVQAGGSLRLSCAASGLTFAYYGMGWYRQAPGKEMELVAAITSSGGSTYYADSVKGRFTISRDNAKNTVYLQMNSLKPEDTAVYYCAAFVRQYGFDYWGQGTQVTVSS | low polyreactivity
3 | QVQLVESGGGLVQAGGSLRLSCAASGLTFCPNAMGWYRQAPGKEREFVASISISGRTYYADSVKGRFTISRDNAKNTVYLLMNSLKPEDTAVYYCAARYVRSGLYRKYDYWGQGTQVTVSS | high polyreactivity
4 | QVQLVESGGGLVQAGGSLRLSCAASGLTFDANAMGWYIQAPGKEREFVAVISWSDGGTYYADSVKGRFTISRDNAKNTVYLQLNSLKPEDTAVYYCNADFYYVYGNTRRYRYFEMEYWGQGTQVTVSS | low polyreactivity
5 | QVQLVESGGGLVQAGGSLRLSCAASGLTFDAYAMGWYRQAPGKERELVAAISSGGNSYYADSVKGRFTISRDNAKNTVYLQMNSLKPEDTAVYYCNAVGYYKYFFLAYEYDYWGQGTQVTVSS | low polyreactivity
6 | QVQLVESGGGLVQAGGSLRLSCAASGLTFDAYAMGWYRQAPGKERELVAAISSGGNTYYADSVKGRFTISRDNAKNTVYLQMNSLKPEDTAVYYCNAVGYYKYFVLAYEYDYWGQGTQVTVSS | low polyreactivity
7 | QVQLVESGGGLVQAGGSLRLSCAASGLTFDGNTMGWYRQAPGKERELVAAISFDGGNTYADSVKGRFRISRDNAKNTVYLQMNSLKPEDTAVYYCNASYEYNAGRVETEYDYWGQGTQVTVSS | low polyreactivity
8 | QVQLVESGGGLVQAGGSLRLSCAASGLTFDRYVMGWYRQAPGKERELVAGISTGGSSTYYADSVKGRFTISRDNAKNTVYLQMNSLKPEDTAVYYCAAKLSYWSRHNYWGQGTQVTVSS | high polyreactivity
9 | QVQLVESGGGLVQAGGSLRLSCAASGLTFDSSAMGWYRQAPGTERELVAAISFSGGRTYYADSVKGRFTISRDTAKNTVYLQMNSLKPDDTAVYYCAAQLRYKYDYWGHGTQVTVSS | high polyreactivity
10 | QVQLVESGGGLVQAGGSLRLSCAASGLTFDYYAMGWYRQAPGKERELVAAIDWSGGSTYYADSVKGRFTISRDNAKNTVYLQMNSLKPEDSAVYYCATESDDSGMDYWGQGTQVTVSS | low polyreactivity
11 | QVQLVESGGGLVQAGGSLRLSCAASGLTFEDNDMGWYRQAPGKERELVAAISSAGSTSYADSVKGRFTISRDNAKNTVYLQMNSLKPEDTAVYYCAKRYYLYHYDSWGQGTQVTVSS | low polyreactivity
12 | QVQLVESGGGLVQAGGSLRLSCAASGLTFFRYARGWYRQAPGKERELVATITGRGGSTYYADSVKGRFTISRDNAKNTVYLQMNSLKPEDTAVYYCAAYYSRFRYLHRDYWGQGTQVTVSS | high polyreactivity
13 | QVQLVESGGGLVQAGGSLRLSCAASGLTFFTYVMGWYRQAPGKERELVASISERGGSTFYADSVKGRFTISRDNAKNTVYLQMNSLKPEDTAVYYCATVSQSFKYRYRWRAAASDYWGQGTQVTVSS | high polyreactivity
14 | QVQLVESGGGLVQAGGSLRLSCAASGLTFGAYAMGWYRQAPGKEREFVAAITYSGGSTNYADSVKGRFTISRDNAKNTVYLQMNSLKPEDTAVYYCNAGYYSPWAFYPYDYWGQGTQVTVSS | high polyreactivity
15 | QVQLVESGGGLVQAGGSLRLSCAASGLTFGFNAMGWYRQAPGKERELVAVIDSGGSTNYADSVKGRFTISRDNAKNTVYLQMNSLKPEDTAVYYCAADYTGFYPDGSDVDYDYWGQGTQVTVSS | low polyreactivity
16 | QVQLVESGGGLVQAGGSLRLSCAASGLTFGGYAMGWYRPAPGKERELVAAISWSGGRTYYADSVKGRFTISRDNAKNTVYLQMNSLKPEDTAVYYCAARKLVVNLREDYWGQGTQVTVSS | high polyreactivity

Row | Sequence | polyreactivity (PSR sort gate)
17 | QVQLVESGGGLVQAGGSLRLSCAASGLTFGGYAMGWYRQAPGKERELVAAISRSGGSTYYADSVKGRFTISRDNAKNTVYLQMNSLKPEDTAVYYCAAVLSVRVYGYDYWGQGTQVTVSS | low polyreactivity
18 | QVQLVESGGGLVQAGGSLRLSCAASGLTFGNYAMGWYRQAPGKERELVAAISKRGGTTYYADSVKARFTISRDNAKNTVYLQMNSLKPEDTAVYYCSARDYSHPTDDNYWGQGTQVTVSS | high polyreactivity
19 | QVQLVESGGGLVQAGGSLRLSCAASGLTFGRNAMGWYRQAPCKERDLVAAITFNGGSTYYADSVKGRFTISRDNEKNTVYIQMNSLKPEDTAVYYCAARLWRRTRFDYWGQGTQVTVSS | high polyreactivity
20 | QVQLVESGGGLVQAGGSLRLSCAASGLTFGRYAMGWYRQAPGKERELVAAITARVGRTYYADSVKGRFTISRDNAKNTVYLQMNSLKPEDTAVYYCAAGPSYYWYSHEKYDYWGQGTQVTVSS | high polyreactivity
21 | QVQLVESGGGLVQAGGSLRLSCAASGLTFGSYAMGWYRQAPGKERELVAAITWSGGSTYYADSVKGRFTISRDNAKNTVYLQMNSLKPEDTAVYYCAVYSTEYKLLWGGIAYDYWGQGTQVTVSS | low polyreactivity
22 | QVQLVESGGGLVQAGGSLRLSCAASGLTFGTNAMGWYRQAPGKERELVAAISTSSGSTYYADSVKGRFTISRDNAKNTVYLQMNSLKPEDTAGYYCAAVTVTKLSYYRYYYWGQGTQVTVSS | low polyreactivity
23 | QVQLVESGGGLVQAGGSLRLSCAASGLTFGYYAMGWYRQAPGKERELVAAISQSGGSTYYADSVKGRFTISRDNAKNTVYLQMNSLKPEDTAVYYCATRRYGYRYDQPYSNDYWGQGTQVTVSS | low polyreactivity
24 | QVQLVESGGGLVQAGGSLRLSCAASGLTFGYYAMGWYRQAPGKERELVAAISRGSSTYYADSVKGRFTISRDNAKNTVYLQMNSLKPEDTAVYYCNALFSYGYWRVRYIVTQYDYWGQGTQVTVSS | high polyreactivity
25 | QVQLVESGGGLVQAGGSLRLSCAASGLTFHPYAMGWYRQAPGKERELVAAISSRGTSTYYADSVKGRFTISRDNAKNTVYLQMNSLKPEDTAVYYCAARHGPRAESMYYWGQCTQVTVSS | high polyreactivity
26 | QVQLVESGGGLVQAGGSLRLSCAASGLTFHRYAMGWYRPAPGKERELVAAINYSGGRTYYADSVKGRFTISRDNAKYTVYLQMNSLKPEDTAVYYCAARFSRVYPRYDYWGQGTQVTVSS | high polyreactivity
27 | QVQLVESGGGLVQAGGSLRLSCAASGLTFHRYAMGWYRQAPGKERELVAAINYSGGRTYYADSVKGRFTISRDNAKNTVYLQMNSLKPEDTAVYYCNKCYVYHPGSLEYGYWGQGTQVTVSS | high polyreactivity
28 | QVQLVESGGGLVQAGGSLRLSCAASGLTFHRYAMGWYRQAPGKERELVAAISRSGVTTRYADSVKGRFTISRDNAKNTVYLQMNSLKPEDTAVYYCAAVYRVRKITYDYWGQGTQVTVSS | high polyreactivity
29 | QVQLVESGGGLVQAGGSLRLSCAASGLTFHRYAMGWYRQAPGKERELVADISSGDSTNYADSVKGRFTISRDNAKNTVYLQMNSLKPEDTAVYYCNTDGYIYRYRFDYWGQGTQVTVSS | low polyreactivity
30 | QVQLVESGGGLVQAGGSLRLSCAASGLTFIGNAMGWYRQAPGKERELVAAITWSGTSTYYADSVKGRFTISRDNAKNTVYLQMNSLKPEDTAVYYCAAVLRRLGVSYYYWGQGTQVTVSS | high polyreactivity
31 | QVQLVESGGGLVQAGGSLRLSCAASGLTFIGYVMGWYRQAPGKERELVAAISGSGGSTYYADSVKGRFTISRDNAKNTVYLQMNSLKPEDTAVYYCAARSRVLTRYDYWGQGTQVTVSS | high polyreactivity
